B1: KCNAB2 (parent)
chain: YVDVVFANRPDPNTPMEETVRAMT

Variants of: B1
Assay: protein stability index of a GFP-peptide fusion (GPS, HEK-293T) (PSI 1-6); higher = more stable
Conditions: c terminus: a fixed tail appended
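Also: lentivirally expressed fusions sorted by FACS into six bins by GFP to DsRed ratio, PSI derived from sequencing read proportions per bin multiplied by bin number.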

Protein stability index, by site and new letter:
E18: P 2.27 | A 2.67 | Q 2.09 | R 2.1 | H 2.97 | G 1.75 | I 2.98 | L 2.56 | N 1.83 | K 2.75 | S 1.99 | V 2.43 | M 3.06 | F 2.1 | Y 2.64 | C 2.02 | T 1.64 | D 2.04 | W 1.85
A22: Y 1.73 | S 1.76 | D 2.67 | W 2.49 | M 2.32 | N 2.13 | K 2.08 | H 2.27 | R 1.89 | P 1.69 | V 2.29 | G 1.74 | E 1.6 | T 1.33 | L 1.98 | F 2.28 | I 1.72 | Q 1.85 | C 2.26
N13: R 1.98 | A 2 | I 2.76 | G 2.14 | T 1.3 | E 2.5 | D 2.29 | F 2.09 | K 2.18 | C 1.89 | M 1.98 | W 2.88 | L 1.96 | Q 2.11 | H 2.15 | Y 2.31 | V 2.44 | S 2.34
R21: V 1.58 | S 1.77 | L 2.64 | T 1.96 | E 2.27 | Y 1.87 | C 1.5 | P 2.1 | D 1.56 | M 1.56 | W 2.27 | A 1.84 | I 2.15 | N 2.33 | G 2.37 | K 2.35 | H 2.22 | F 2.78 | Q 2.18
T14: V 1.56 | R 2.23 | S 1.93 | E 1.7 | H 2.77 | K 2.2 | I 3.12 | P 2.51 | C 1.99 | F 2.32 | G 2.04 | W 1.54 | Q 2.12 | Y 2.4 | N 3.02 | D 1.69 | M 2.65 | L 2.37 | A 1.84
P10: C 2.43 | L 2.7 | F 2.8 | M 2.62 | V 1.82 | T 2.17 | Y 1.69 | N 2.06 | G 2.65 | D 2.47 | W 3.14 | Q 1.73 | A 1.84 | S 1.38 | I 2.2 | K 2.27 | E 2.13 | R 2.13 | H 2.12
P12: V 2.72 | D 1.65 | M 2.03 | Y 2.72 | L 2.51 | K 2.16 | A 2.27 | S 1.66 | H 1.37 | W 2.04 | I 1.83 | R 1.46 | N 1.28 | E 1.65 | Q 2.43 | C 2.08 | T 1.56 | F 2.02 | G 2.31
M16: G 1.95 | V 1.65 | D 1.77 | K 1.8 | W 2.2 | N 2.2 | Y 2.18 | L 1.86 | F 1.77 | Q 2.27 | C 1.82 | I 1.64 | S 2.42 | E 2.02 | P 1.91 | H 1.93 | A 1.8 | T 1.33 | R 2.54
M23: S 1.58 | C 2.04 | H 1.66 | E 1.86 | K 1.82 | N 1.8 | G 1.56 | L 2.57 | Q 1.41 | Y 2.13 | F 2.03 | W 2.06 | R 2.81 | D 1.61 | A 2.16 | I 1.82

From the supplement of paper PMC10567573
